Experimental data reported in US20170174776A1 (Hoffmann-La Roche, published 2017).

B1: mAb 128.1 (mouse anti-human transferrin-receptor antibody 128.1 variable regions with human IgG1 heavy and light chain constant regions) (antibody, V domains shown)
VH: EVQLQQSGPELVKPGASMKISCKASGYSFTGYTMNWVKQSHGENLEWIGRINPHNGGTDYNQKFKDKAPLTVDKSSNTAYMELLSLTSEDSAVYYCARGYYYYSLDYWGQGTSVTVSS
VL: QIVLTQSPAIMSASPGEKVTMTCSASSSIDYIHWYQQKSGTSPKRWIYDTSKLASGVPARFSGSGSGTSYSLTISSMEPEDAATYYCHQRNSYPWTFGGGTRLEIR
B2: mAb 8D3 (rat anti-mouse transferrin-receptor antibody 8D3 variable regions with human IgG1 heavy and light chain constant regions) (antibody, V domains shown)
VH: EVQLVESGGGLVQPGNSLTLSCVASGFTFSNYGMHWIRQAPKKGLEWIAMIYYDSSKMNYADTVKGRFTISRDNSKNTLYLEMNSLRSEDTAMYYCAVPTSHYVVDVWGQGVSVTVSS
VL: DIQMTQSPASLSASLEEIVTITCQASQDIGNWLAWYQQKPGKSPQLLIYGATSLADGVPSRFSGSRSGTQFSLKISRVQVEDIGIYYCLQAYNTPWTFGGGTKLELK

Key:
[1] = target: T1, fusion protein of the human transferrin receptor extracellular domain linked to human IgG1 Fc (human, UniProt P02786 89-760); test: ELISA, coated human TfR ECD-Fc, pH 5.5
T1 construct: extracellular domain; Bought, R&D Systems #2474-TR-050; also called human TfR; not shown: human IgG1 Fc
T1 sequence (P02786 89-760): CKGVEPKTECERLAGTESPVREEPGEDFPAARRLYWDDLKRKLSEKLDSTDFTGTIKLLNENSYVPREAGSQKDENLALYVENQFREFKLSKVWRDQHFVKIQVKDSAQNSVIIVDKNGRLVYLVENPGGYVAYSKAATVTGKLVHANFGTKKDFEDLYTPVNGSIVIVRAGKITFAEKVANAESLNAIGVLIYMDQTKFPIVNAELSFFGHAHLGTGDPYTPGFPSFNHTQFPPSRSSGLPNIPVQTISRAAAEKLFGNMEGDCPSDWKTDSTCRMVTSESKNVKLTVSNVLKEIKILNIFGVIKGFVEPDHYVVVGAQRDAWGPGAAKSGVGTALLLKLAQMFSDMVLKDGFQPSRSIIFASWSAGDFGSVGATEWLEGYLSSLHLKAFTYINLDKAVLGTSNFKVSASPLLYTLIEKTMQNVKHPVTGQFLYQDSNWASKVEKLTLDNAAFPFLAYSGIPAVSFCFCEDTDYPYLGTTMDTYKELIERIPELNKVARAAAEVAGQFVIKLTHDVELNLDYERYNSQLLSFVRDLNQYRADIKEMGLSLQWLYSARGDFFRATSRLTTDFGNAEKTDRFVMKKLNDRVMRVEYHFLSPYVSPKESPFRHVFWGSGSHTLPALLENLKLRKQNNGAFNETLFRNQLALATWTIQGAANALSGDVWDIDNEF
Method: (§1) A fusion protein of the human transferrin receptor extracellular domain linked to human IgG1 Fc (R&D Systems, Wiesbaden, Germany, #2474-TR-050) or the extracellular domain of the mouse transferrin receptor (SinoBiological, Beijing, China, #50741-M07H) or of the human insulin receptor (R&D Systems, Wiesbaden, Germany, #1544-IR/CF) were coated to a 96-well plate by incubating 50 μl of a solution of 1 μg/ml in PBS for 1 h at RT. […] After four further washes with PBS/0.1% (w/v) TWEEN 20, bound antibodies were detected using HRP-coupled secondary antibodies (Dianova, Hamburg, Germany, #109-036-097 or GE Healthcare, Freiburg, Germany, #NA9310V)(30 min., RT) and 50 μl of TMB (10 min., RT) substrate. Color development was stopped by addition of 50 μl of 1 N hydrochloric acid (HCl) and absorbance measured at 450 nm in a plate reader.

[2] = target: T1, fusion protein of the human transferrin …; test: ELISA, coated human TfR ECD-Fc, pH 5.5 against pH 7.4
Method: as §1

[3] = target: T1, fusion protein of the human transferrin …; test: ELISA, coated human TfR ECD-Fc, pH 7.4
Method: as §1

[4] = target: T2, extracellular domain of the mouse transferrin receptor (mouse, UniProt Q62351 89-763); test: ELISA, coated mouse TfR ECD, pH 5.5
T2 construct: extracellular domain; Bought, SinoBiological #50741-M07H; also called mouse TfR
T2 sequence (Q62351 89-763): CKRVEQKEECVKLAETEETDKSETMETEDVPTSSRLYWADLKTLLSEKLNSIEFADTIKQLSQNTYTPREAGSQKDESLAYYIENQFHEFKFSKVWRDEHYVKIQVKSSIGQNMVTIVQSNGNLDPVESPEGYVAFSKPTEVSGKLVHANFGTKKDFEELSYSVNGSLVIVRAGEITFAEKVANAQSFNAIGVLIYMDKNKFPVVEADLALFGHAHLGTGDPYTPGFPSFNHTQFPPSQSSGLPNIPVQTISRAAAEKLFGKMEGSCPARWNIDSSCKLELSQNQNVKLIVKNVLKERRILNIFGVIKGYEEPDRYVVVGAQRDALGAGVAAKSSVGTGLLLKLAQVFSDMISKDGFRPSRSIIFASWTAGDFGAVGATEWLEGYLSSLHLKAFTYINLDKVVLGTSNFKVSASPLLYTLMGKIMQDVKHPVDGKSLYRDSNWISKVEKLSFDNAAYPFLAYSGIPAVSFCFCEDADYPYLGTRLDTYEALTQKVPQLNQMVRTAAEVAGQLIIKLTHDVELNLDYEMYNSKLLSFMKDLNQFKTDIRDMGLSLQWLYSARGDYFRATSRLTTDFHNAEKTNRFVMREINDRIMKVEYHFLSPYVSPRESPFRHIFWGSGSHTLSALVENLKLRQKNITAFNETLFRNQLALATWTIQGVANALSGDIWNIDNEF

[5] = target: T2, extracellular domain of the mouse …; test: ELISA, coated mouse TfR ECD, pH 7.4
[6] = target: T2, extracellular domain of the mouse …; test: ELISA, coated mouse TfR ECD, pH 5.5 against pH 7.4

Row | Binder | EC50 [1] [µg/mL] | ratio EC50 pH 5.5/EC50 pH 7.4 [2] | EC50 [3] [µg/mL] | EC50 [4] [µg/mL] | EC50 [5] [µg/mL] | ratio EC50 pH 5.5/EC50 pH 7.4 [6]
1 | B1 | 0.0098 | 1.3 | 0.0078 |  |  | 
2 | B2 |  |  |  | 0.0549 | 0.0511 | 1.1
